Laboratory results as given in article PMC4967302.
pKd, pKi: −log10 of the molar value.

Experiments:
[1] = target: CCR5 in crude membranes from CCR5-expressing HEK 293T cells (UniProt P51681); test: radioligand binding; equilibrium saturation binding of 35S-labeled gp120 to crude membranes from CCR5-expressing HEK 293T cells, room temperature, in the presence of 200 nM soluble CD4; non-specific binding measured with 10 µM maraviroc; one-site binding model
[2] = target: CD4 exposed at the surface of HEK 293T cells (UniProt P01730); test: flow cytometry on cells

UniProt P51681, sequence (P51681 whole entry): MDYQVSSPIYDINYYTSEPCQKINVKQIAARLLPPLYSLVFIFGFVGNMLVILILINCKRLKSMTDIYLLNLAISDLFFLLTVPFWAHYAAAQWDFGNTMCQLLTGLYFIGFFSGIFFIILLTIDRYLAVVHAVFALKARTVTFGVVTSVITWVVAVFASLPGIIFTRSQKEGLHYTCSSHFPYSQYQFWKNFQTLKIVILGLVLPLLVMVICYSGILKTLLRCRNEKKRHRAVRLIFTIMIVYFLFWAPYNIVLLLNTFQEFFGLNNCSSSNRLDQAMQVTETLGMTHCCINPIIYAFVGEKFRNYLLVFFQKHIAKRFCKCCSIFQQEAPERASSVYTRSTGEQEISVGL

purified soluble wt B gp120 (domain or fragment)
pKd [1]: 8.08
pKi [2]: 8.41
